First the molecules themselves.
B1: I-485 (peptide)
peptide: Ac-[αAllylPro]DI[B5(4)]DEAA[2Thi]Q[S8]F[Bta]Q-NH2
modifications: staple 1-4, 4-11
B2: I-1005 (peptide)
peptide: Ac-[αAllylPro]D[tBuAla][B5(5)]D[TfeGA]AIFN[PyrS2″][Phe(2-Cl)][Bta]Q-NH2
modifications: staple 1-4, 4-11
B3: I-1003 (peptide)
peptide: Ac-[αAllylPro]D[tBuAla][B5(5)]D[TfeGA]AFFN[PyrS2″][Phe(2-Cl)][Bta]Q-NH2
modifications: staple 1-4, 4-11
B4: I-1006 (peptide)
peptide: Ac-[αAllylPro]D[tBuAla][B5(18)]D[TfeGA]AKFN[PyrS2″][Phe(2-Cl)][Bta]Q-NH2
modifications: staple 1-4, 4-11
B5: I-1013 (peptide)
peptide: Ac-[αAllylPro]D[tBuAla][B5(18)]DDAAFT[PyrS2″][Phe(2-Cl)][Bta]Q-NH2
modifications: staple 1-4, 4-11
B6: I-1001 (peptide)
peptide: Ac-[αAllylPro]D[tBuAla][B5(5)][3Thi][TfeGA]AAFN[PyrS2″]D[Bta]Q-NH2
modifications: staple 1-4, 4-11
B7: I-1538 (peptide)
peptide: Ac-[αAllylPro]D[hLeu][B5(15)]DEAAF[hSer][S8]F[Bta]Q-NH2
modifications: staple 1-4, 4-11; not fully specified; printed as Ac-PL3-Asp-Hleu-B5-Asp-Glu-Ala-Ala-Phe-Hse-S8-Phe-BztA-Gln-NH2
B8: I-1537 (peptide)
peptide: Ac-[αAllylPro]D[hLeu][B5(15)]DEAAF[hSer][S8]F[Bta]Q-NH2
modifications: staple 1-4, 4-11; not fully specified; printed as Ac-PL3-Asp-Hleu-B5-Asp-Glu-Ala-Ala-Phe-Hse-S8-Phe-BztA-Gln-NH2
B9: I-1536 (peptide)
peptide: Ac-[αAllylPro]D[hLeu][B5(15)]DEAAFL[S8]F[Bta]Q-NH2
modifications: staple 1-4, 4-11
B10: I-1555 (peptide)
peptide: Ac-[αAllylPro]D[tBuAla][B5(23)]NNAAFN[PyrS2][3Thi][Bta]Q-NH2
modifications: staple 1-4, 4-11
B11: I-1175 (peptide)
peptide: Ac-[αAllylPro]D[Cha][B5(4)]DTAAFT[PyrS2″][Phe(2-Cl)][Bta]Q-NH2
modifications: staple 1-4, 4-11
B12: I-1178 (peptide)
peptide: Ac-[αAllylPro]D[tBuAla][B5(4)]DDA[Aib]FL[PyrS2″][3Thi][Bta]Q-NH2
modifications: staple 1-4, 4-11
B13: I-1172 (peptide)
peptide: Ac-[αAllylPro]D[tBuAla][B5(4)]DTAAFL[PyrS2″][Phe(2-Cl)][Bta]S-NH2
modifications: staple 1-4, 4-11
B14: I-1171 (peptide)
peptide: Ac-[αAllylPro]D[tBuAla][B5(4)]DTAAFL[PyrS2″][3Thi][Bta]S-NH2
modifications: staple 1-4, 4-11
B15: I-1179 (peptide)
peptide: Ac-[αAllylPro]D[tBuAla][B5(21)]DD[Aib][Aib]FL[PyrS2″][3Thi][Bta]Q-NH2
modifications: staple 1-4, 4-11; also: earlier eluting HPLC peak (staple isomer composition)
B16: I-1441 (peptide)
peptide: Ac-[αAllylPro]D[tBuAla][B5(4)]DFAAFL[PyrS2″][3Thi][Bta]Q-NH2
modifications: staple 1-4, 4-11
B17: I-1177 (peptide)
peptide: Ac-[αAllylPro]D[tBuAla][B5(4)]DD[Aib]AFL[PyrS2″][3Thi][Bta]Q-NH2
modifications: staple 1-4, 4-11
B18: I-1444 (peptide)
peptide: Ac-[αAllylPro]D[tBuAla][B5(4)]DLAAFL[PyrS2″][3Thi][Bta]Q-NH2
modifications: staple 1-4, 4-11
B19: I-1176 (peptide)
peptide: Ac-[αAllylPro]D[Cha][B5(21)]DTAAFL[PyrS2″][Phe(2-Cl)][Bta]Q-NH2
modifications: staple 1-4, 4-11
B20: I-1170 (peptide)
peptide: Ac-[αAllylPro]D[tBuAla][B5(4)]DTAAFT[PyrS2″][3Thi][Bta]S-NH2
modifications: staple 1-4, 4-11
B21: I-1168 (peptide)
peptide: Ac-[αAllylPro]D[tBuAla][B5(4)]DTAAFT[PyrS2″][Phe(2-Cl)][Bta]Q-NH2
modifications: staple 1-4, 4-11
B22: I-1169 (peptide)
peptide: Ac-[αAllylPro]D[tBuAla][B5(21)]DTAAFL[PyrS2″][Phe(2-Cl)][Bta]Q-NH2
modifications: staple 1-4, 4-11
B23: I-1173 (peptide)
peptide: Ac-[αAllylPro]D[Cha][B5(4)]DTAAFT[PyrS2″][3Thi][Bta]Q-NH2
modifications: staple 1-4, 4-11
B24: I-1174 (peptide)
peptide: Ac-[αAllylPro]D[Cha][B5(4)]DTAAFL[PyrS2″][3Thi][Bta]Q-NH2
modifications: staple 1-4, 4-11
B25: I-796 (peptide)
peptide: Ac-[αAllylPro]F[tBuAla][B5]DDAADN[PyrS2][3Thi][Bta]H-NH2
modifications: staple 1-4, 4-11

Starred links: 1 amine or outer side, 2 acyl side, 3 side chain; linkers in the order of their positions; H or OH if unused. Positions of bridges follow the written chain, without caps; N, C: chain ends. Non-standard residues stand in square brackets, D forms with d. Primed or numbered codes have the meaning given here. B5(15) = 2-amino-2-(pent-4-en-1-yl)hept-6-enoic acid (2,2-bis(4-pentenyl)glycine), stitching residue bearing two staples, C=CCCCC(CCCC=C)(N[*:1])C(=O)[*:2]; PyrS2″ = (S)-3-amino-1-((pent-4-en-1-yloxy)carbonyl)pyrrolidine-3-carboxylic acid (stapling residue), C=CCCCOC(=O)N1CC[C@@](N[*:1])(C(=O)[*:2])C1; B5(18) = 2,2-bis(4-pentenyl)glycine (2-amino-2-(pent-4-en-1-yl)hept-6-enoic acid), stitching residue, C=CCCCC(CCCC=C)(N[*:1])C(=O)[*:2]; B5(23) = 2-amino-2-(pent-4-en-1-yl)hept-6-enoic acid (2,2-bis(4-pentenyl)glycine), stitching residue, C=CCCCC(CCCC=C)(N[*:1])C(=O)[*:2]; B5(4) = 2,2-bis(4-pentenyl)glycine = 2-amino-2-(pent-4-en-1-yl)hept-6-enoic acid (stitching residue), C=CCCCC(CCCC=C)(N[*:1])C(=O)[*:2]; B5(5) = 2,2-bis(4-pentenyl)glycine, 2-amino-2-(pent-4-en-1-yl)hept-6-enoic acid (stitching residue), C=CCCCC(CCCC=C)(N[*:1])C(=O)[*:2]; B5(21) = 2-amino-2-(pent-4-en-1-yl)hept-6-enoic acid, bis(4-pentenyl)glycine (stitching residue), C=CCCCC(CCCC=C)(N[*:1])C(=O)[*:2]; TfeGA = (S)-2-amino-3-((carboxymethyl)(2,2,2-trifluoroethyl)amino)propanoic acid, O=C([C@H](CN(CC(=O)[*:3])CC(F)(F)F)N[*:1])[*:2]; PyrS2 = (S)-3-amino-1-((pent-4-en-1-yloxy)carbonyl)pyrrolidine-3-carboxylic acid, C=CCCCOC(=O)N1CC[C@@](N[*:1])(C(=O)[*:2])C1; B5(3) = 2,2-bis(4-pentenyl)glycine (stitching residue), C=CCCCC(CCCC=C)(N[*:1])C(=O)[*:2]; B5 = 2-amino-2-(pent-4-en-1-yl)hept-6-enoic acid, C=CCCCC(CCCC=C)(N[*:1])C(=O)[*:2]; Phe(2-Cl) = N[C@@H](Cc1ccccc1Cl)C(=O)O; Bta = N[C@@H](Cc1csc2ccccc12)C(=O)O; αAllylPro = C=CC[C@@]1(C(=O)O)CCCN1; tBuAla = CC(C)(C)C[C@H](N)C(=O)O; 2Thi = N[C@@H](Cc1cccs1)C(=O)O; 3Thi = N[C@@H](Cc1ccsc1)C(=O)O; Cha = N[C@@H](CC1CCCCC1)C(=O)O; S8 = C=CCCCCCC[C@](C)(N)C(=O)O; hLeu = CC(C)CC[C@H](N)C(=O)O; hSer = N[C@@H](CCO)C(=O)O; Aib = CC(C)(N)C(=O)O

One test has as its target full-length beta-Catenin (Uniprot ID P35222) (Homo sapiens (Human)) (UniProt P35222). Put plainly: cell-based or functional assay.
Target sequence in this assay (P35222 2-781 limits assumed): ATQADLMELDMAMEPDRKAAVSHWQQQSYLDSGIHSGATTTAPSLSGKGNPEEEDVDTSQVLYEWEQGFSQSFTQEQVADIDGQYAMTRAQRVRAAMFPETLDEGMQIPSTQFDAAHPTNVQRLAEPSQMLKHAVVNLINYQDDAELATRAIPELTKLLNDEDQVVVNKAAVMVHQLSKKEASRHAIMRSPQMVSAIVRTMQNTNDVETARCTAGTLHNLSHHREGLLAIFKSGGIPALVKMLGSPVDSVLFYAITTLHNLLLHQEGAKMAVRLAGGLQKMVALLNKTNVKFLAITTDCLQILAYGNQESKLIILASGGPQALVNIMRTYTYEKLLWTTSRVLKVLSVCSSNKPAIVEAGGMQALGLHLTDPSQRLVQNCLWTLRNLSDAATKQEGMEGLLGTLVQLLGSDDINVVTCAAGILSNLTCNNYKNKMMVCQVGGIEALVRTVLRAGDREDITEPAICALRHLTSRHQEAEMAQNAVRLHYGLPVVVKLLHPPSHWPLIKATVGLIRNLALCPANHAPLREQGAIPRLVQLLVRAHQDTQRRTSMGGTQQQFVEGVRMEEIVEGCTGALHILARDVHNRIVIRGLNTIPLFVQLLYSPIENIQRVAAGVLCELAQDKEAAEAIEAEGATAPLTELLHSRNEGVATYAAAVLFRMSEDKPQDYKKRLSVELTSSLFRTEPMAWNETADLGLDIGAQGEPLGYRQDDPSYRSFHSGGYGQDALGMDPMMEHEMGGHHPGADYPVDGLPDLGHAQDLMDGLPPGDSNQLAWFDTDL
In turn, B1 gave a NanoBRET Abs IC50 of 11.3 µM.

The target is the same in a further test. In words: fluorescence polarization competition; 10 nM full-length beta-catenin + 10 nM 5FAM-TCF4(10-53) probe.
Target sequence in this assay (P35222 whole entry, one chain of several): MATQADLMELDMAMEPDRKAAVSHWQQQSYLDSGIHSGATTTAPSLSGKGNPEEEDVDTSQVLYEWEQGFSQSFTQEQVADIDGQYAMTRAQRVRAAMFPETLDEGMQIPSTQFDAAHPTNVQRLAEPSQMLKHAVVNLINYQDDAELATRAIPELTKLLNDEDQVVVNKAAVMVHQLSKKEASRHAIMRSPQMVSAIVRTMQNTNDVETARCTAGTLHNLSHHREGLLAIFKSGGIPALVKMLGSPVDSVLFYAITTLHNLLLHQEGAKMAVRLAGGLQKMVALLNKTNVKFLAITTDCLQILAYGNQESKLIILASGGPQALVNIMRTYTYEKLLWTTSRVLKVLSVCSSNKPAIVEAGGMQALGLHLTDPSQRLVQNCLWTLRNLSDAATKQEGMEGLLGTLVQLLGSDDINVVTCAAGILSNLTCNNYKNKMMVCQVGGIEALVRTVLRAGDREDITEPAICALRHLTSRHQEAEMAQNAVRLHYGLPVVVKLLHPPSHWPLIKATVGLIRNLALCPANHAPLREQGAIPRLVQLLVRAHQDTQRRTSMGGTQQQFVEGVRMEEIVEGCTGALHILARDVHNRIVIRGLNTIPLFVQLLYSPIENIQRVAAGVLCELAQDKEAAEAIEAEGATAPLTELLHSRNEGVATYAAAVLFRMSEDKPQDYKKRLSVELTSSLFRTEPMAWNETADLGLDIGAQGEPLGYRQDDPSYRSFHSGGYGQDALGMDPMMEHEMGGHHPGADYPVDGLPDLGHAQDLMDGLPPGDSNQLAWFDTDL
For B2, the IC50 was found to be 0.042 µM. Still for that read-out and setting: with B3 the figure was 0.038 µM. Same read-out and setting: with B4 the figure was 0.005 µM; with B5, 0.008 µM. Turning to B6, the IC50 is 7.22 µM.

A further test shares this target. In words: fluorescence polarization competition; displaces 5FAM-TCF4(10-53) from full-length beta-catenin.
Target sequence in this assay (P35222 2-781 limits assumed): as the sequence (P35222 2-781 limits assumed) above
As for B7, the IC50 amounted to 0.021 µM. The same measure, in the same setting: in the case of B8 it was 0.031 µM. On to B2, for which the 50% effective concentration (EC50) turned out to be 0.042 µM. On the same count and under the same terms, with B3 the figure was 0.038 µM. For B9, the IC50 was determined as 0.042 µM. For B4, the EC50 came to 0.005 µM. As for B10, the IC50 turned out to be 0.18 µM. The molecule B5 gave an EC50 of 0.008 µM. The same measure, in the same setting: in the case of B6 it was 5.53 µM.

The target is the same in another test. Put plainly: fluorescence polarization competition; full-length beta-catenin, competitor 5FAM-TCF4(10-53) probe.
Regarding B11, the IC50 is 0.024 µM. B12 registered an IC50 of 0.0545 µM. The same measure, in the same setting: in the case of B13 it was 0.045 µM. Still for that read-out and setting: in the case of B14 it was 0.07 µM. The same measure, in the same setting: in the case of B15 it was 0.346 µM. Consider B16, for which the 50% inhibitory concentration (IC50) came out at 0.327 µM.

B17 registered a half-inhibitory concentration (IC50) of 0.025 µM.

Turning to B18, the IC50 is 6.56 µM.

Molecule B19 registered a concentration for half-maximal inhibition (IC50) of 0.169 µM.

In the case of B20, the IC50 was 0.015 µM. The same measure, in the same setting: with B21 the figure was 0.025 µM.

B22 registered an IC50 of 0.159 µM. The molecule B23 showed an IC50 of 0.012 µM. On the same count and under the same terms, in the case of B24 it was 0.043 µM.

For another test the target is unchanged. In words: fluorescence polarization competition; displacement of 5FAM-TCF4(10-53) from full-length beta-catenin.
Target sequence in this assay (P35222 whole entry, one chain of several): as the sequence (P35222 whole entry, one chain of several) above
Molecule B1 displayed an EC50 of 0.034 µM.

A further test has the same target. Put plainly: fluorescence polarization competition; full-length beta-catenin with 5FAM-TCF4(10-53) probe as competitor.
Target sequence in this assay (P35222 2-781 limits assumed): as the sequence (P35222 2-781 limits assumed) above
In turn, B1 displayed an IC50 of 0.034 µM.

The next test deals with beta-catenin (Homo sapiens (Human)) (UniProt P35222). Described as above.
beta-catenin (Homo sapiens (Human)), sequence (P35222 whole entry): as the sequence (P35222 whole entry, one chain of several) above
On to B16, for which the EC50 amounted to 0.327 µM. The same measure, in the same setting: in the case of B18 it was 6.56 µM.

Another test deals with full-length beta-Catenin (Uniprot ID P35222) (Homo sapiens (Human)) (UniProt P35222). Put plainly: fluorescence polarization competition: peptide titrated against 10 nM full-length beta-catenin + 10 nM 5FAM-TCF4(10-53) probe.
Target sequence in this assay (P35222 2-781 limits assumed): as the sequence (P35222 2-781 limits assumed) above
On to B25, for which the EC50 was found to be 8.14 µM.

The next test has the same target. In words: fluorescence polarization competition; full-length beta-catenin; competitor 5FAM-TCF4(10-53) probe.
Target sequence in this assay (P35222 whole entry, one chain of several): as the sequence (P35222 whole entry, one chain of several) above
B11 displayed an EC50 of 0.024 µM. In turn, B12 returned an EC50 of 0.0545 µM. The same measure, in the same setting: in the case of B13 it was 0.045 µM. B14 had an EC50 of 0.07 µM.

For the molecule B15, the EC50 is 0.346 µM.

In the case of B17, the EC50 worked out at 0.025 µM. In turn, B19 showed an EC50 of 0.169 µM. The same measure, in the same setting: with B20 the figure was 0.015 µM; with B21, 0.025 µM; with B22, 0.159 µM.

The molecule B23 yielded an EC50 of 0.012 µM. Same read-out and setting: in the case of B24 it was 0.043 µM.
